This experiment addresses GST-human NOGO-A56 (human) (UniProt Q9NQC3). In words: SPR (Biacore 3000), GST-human NOGO-A56 on CM5 chip, antibody as analyte; single experiment.

Sequence of GST-human NOGO-A56 (human) (Q9NQC3 586-785): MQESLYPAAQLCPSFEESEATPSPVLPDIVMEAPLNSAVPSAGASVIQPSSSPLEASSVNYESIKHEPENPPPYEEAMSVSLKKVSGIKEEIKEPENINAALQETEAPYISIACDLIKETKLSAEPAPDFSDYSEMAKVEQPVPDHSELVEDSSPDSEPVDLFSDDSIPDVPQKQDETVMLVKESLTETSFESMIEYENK

In turn, 11C7 (chimeric version) (antibody) displayed a Kd of 0.057 nM, a koff of 8.25e-05 s⁻¹ and a kon of 1.44e+06 M⁻¹ s⁻¹.

For the origin of these results see patent US20110054149A1.
